Experimental findings from patent publication US20240218060A1 (Hoffmann-La Roche, published 2024) are described below.

In this assay the target is T1, human neonatal Fc-receptor (FcRn) (human, UniProt P55899 24-297; P61769 21-119).
T1 construct: also called human FcRn; huFcRn
Briefly: SPR (BIAcore T100), FcRn immobilised on a CM5 chip, 200 nM antibody, PBS 0.05% Tween20 pH 6.0. Background: Surface plasmon resonance follows binding to a sensor surface in real time, without labels.

T1 sequence (P55899 24-297 limits assumed, chain 1 of 2): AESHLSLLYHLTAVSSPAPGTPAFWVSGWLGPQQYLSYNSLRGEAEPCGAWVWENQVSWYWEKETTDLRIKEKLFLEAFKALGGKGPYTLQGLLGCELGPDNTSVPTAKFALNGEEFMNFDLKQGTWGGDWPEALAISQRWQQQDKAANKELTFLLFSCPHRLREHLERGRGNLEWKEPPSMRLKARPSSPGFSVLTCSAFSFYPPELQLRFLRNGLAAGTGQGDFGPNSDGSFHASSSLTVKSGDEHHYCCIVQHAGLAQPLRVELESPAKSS
T1 sequence (P61769 21-119 limits assumed, chain 2 of 2): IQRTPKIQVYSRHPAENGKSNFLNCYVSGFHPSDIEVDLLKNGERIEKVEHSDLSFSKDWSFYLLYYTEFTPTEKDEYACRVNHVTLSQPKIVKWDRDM
Method: The binding properties of wild-type antibody and the mutants to FcRn were analyzed by surface plasmon resonance (SPR) technology using a BIAcore T100 instrument (BIAcore AB, Uppsala, Sweden). […] In the current assay, the FcRn receptor was immobilized onto a BIAcore CM5-biosensor chip (GE Healthcare Bioscience, Uppsala, Sweden) via amine coupling to a level of 400 Response units (RU). The assay was carried out at room temperature with PBS, 0.05% Tween20 pH 6.0 (GE Healthcare Bioscience) as running and dilution buffer. 200 nM of samples were injected at a flow rate of 50 μL/min at room temperature. Association time was 180 sec., dissociation phase took 360 sec. Regeneration of the chip surface was reached by a short injection of HBS-P, pH 8.0. Evaluation of SPR-data was performed by comparison of the biological response signal height at 180 sec. after injection and at 300 sec. after injection. The corresponding parameters are the RU max level (180 sec. after injection) and late stability (300 sec. after end of injection).

B1: YTE-mutant of anti-IGF-1R antibody (antibody, human IgG1, kappa)
light: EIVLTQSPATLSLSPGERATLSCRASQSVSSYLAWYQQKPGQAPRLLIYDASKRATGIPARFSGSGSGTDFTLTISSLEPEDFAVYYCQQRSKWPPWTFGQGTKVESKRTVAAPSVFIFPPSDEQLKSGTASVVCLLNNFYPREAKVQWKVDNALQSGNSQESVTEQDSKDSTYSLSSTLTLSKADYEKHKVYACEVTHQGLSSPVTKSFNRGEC
heavy: QVELVESGGGVVQPGRSQRLSCAASGFTFSSYGMHWVRQAPGKGLEWVAIIWFDGSSTYYADSVRGRFTISRDNSKNTLYLQMNSLRAEDTAVYFCARELGRRYFDLWGRGTLVSVSSASTKGPSVFPLAPSSKSTSGGTAALGCLVKDYFPEPVTVSWNSGALTSGVHTFPAVLQSSGLYSLSSVVTVPSSSLGTQTYICNVNHKPSNTKVDKKVEPKSCDKTHTCPPCPAPELLGGPSVFLFPPKPKDTLYITREPEVTCVVVDVSHEDPEVKFNWYVDGVEVHNAKTKPREEQYNSTYRVVSVLTVLHQDWLNGKEYKCKVSNKALPAPIEKTISKAKGQPREPQVYTLPPSRDELTKNQVSLTCLVKGFYPSDIAVEWESNGQPENNYKTTPPVLDSDGSFFLYSKLTVDKSRWQQGNVFSCSVMHEALHNHYTQKSLSLSPG
notes: also called <IGF-1R> IgG1 with M252Y, S254T, T256E; anti-IGF-1R IgG1 with YTE mutation
As to B1, the binding result is “binds”.
